Results as given in PMC7672459, “Detection of genomic G-quadruplexes in living cells using a small artificial protein”.

Experiments:
G4P [1] = target: T1, G4P (artificial (RHAU-derived), UniProt Q9H2U1 53-75); assay: EMSA; K+; only 20% of DNA bound at saturation; low-nM Kd, number only in figure; EMSA: 20 mM Tris-HCl pH 7.4, 75 mM KCl, 1 mM EDTA, 0.4 mg/ml BSA, 10 nM DNA, 4 C (or 37 C), 1 h; dsDNA with 30% PEG 200; pull-down: 20 mM Tris-HCl pH 7.4, 150 mM KCl, 1 mM EDTA, 0.5% Triton X-100, 4 C; conditions: protein: recombinant, tags: N-terminal HIS, C-terminal GTGSGA-3xFLAG, label: 5' FAM
T1 chain: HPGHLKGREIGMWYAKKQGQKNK

G4P [2] = target: T1, G4P; assay: competition; competitor of FAM c-KIT/KRAS G4; EMSA: 20 mM Tris-HCl pH 7.4, 75 mM KCl, 1 mM EDTA, 0.4 mg/ml BSA, 10 nM DNA, 4 C (or 37 C), 1 h; dsDNA with 30% PEG 200; pull-down: 20 mM Tris-HCl pH 7.4, 150 mM KCl, 1 mM EDTA, 0.5% Triton X-100, 4 C; conditions: protein: recombinant; tags: N-terminal HIS; C-terminal GTGSGA-3xFLAG; label: 5' FAM; parallel G4
G4P [3] = target: T1, G4P; assay: EMSA; K+; two distinct Kd values, numbers only in figure; EMSA: 20 mM Tris-HCl pH 7.4, 75 mM KCl, 1 mM EDTA, 0.4 mg/ml BSA, 10 nM DNA, 4 C (or 37 C), 1 h; dsDNA with 30% PEG 200; pull-down: 20 mM Tris-HCl pH 7.4, 150 mM KCl, 1 mM EDTA, 0.5% Triton X-100, 4 C; conditions: protein: recombinant; tags: N-terminal HIS; C-terminal GTGSGA-3xFLAG; label: 5' FAM; parallel broken-strand G4

Q: Does GGTTAGGGTTAGGGTTAGGGTTAGGGTTAG (structured_DNA) [Tel] bind (G4P [1]; mixed parallel/antiparallel G4)?
A: binds

Q: Does GGGGCCGGGGCCGGGGCCGGGGCC (structured_DNA) [C9orf72] bind (G4P [1]; antiparallel G4, hairpin in equilibrium)?
A: binds

Q: Does TTCGGGCGGGCGCGAGGGAGGGTTTT (structured_DNA) [c-KIT] bind (G4P [2])?
A: binds

Q: Does AGGGCGGTGTGGGAAGAGGGAAGAGGGGGAGG (structured_DNA) [KRAS] bind (G4P [2])?
A: binds

Q: Does AAGGGAGGGCGGCGGGGCAGGGA (structured_DNA) [PDGFR-beta] bind (G4P [3])?
A: binds
